Reference: patent publication US8865222B2, “Beta-casein assemblies for enrichment of food and beverages and methods of preparation thereof” (Technion Research and Development Foundation Ltd., priority 2008, dated 2014)
Values joined by “and” are separate entries in the source; they are usually repeats but may differ in a detail not shown here. Equal values may be shown once.

Experiment: Small angle X-ray scattering (SAXS) of beta-casein micellar solutions
Format: physicochemical
Settings: for aggregation number: pH 6.7, 0.05M NaCl
Protocol: Small Angle X-ray Scattering (SAXS): The small angle x-ray scattering equipment consisted of a SAXSess camera (Anton-Paar, Graz, Austria) connected to an x-ray generator (Philips, PW1730/10) operating at 40 kV and 50 mA with a sealed-tube Cu anode. A Göbel mirror was used to convert the divergent polychromatic x-ray beam into a focused line-shaped beam of Cu Kα radiation (λ=0.154 nm). The 2D scattering pattern was recorded by a PI-SCX fused fiber optic taper CCD camera from Princeton Instruments, which is a division of Roper Scientific, Inc. (Trenton, N.J., USA). The used CCD detector features a 2084×2084 array with 24×24 μm pixel size (chip size: 50×50 mm). The CCD was operated at −30° C. with 10° C. water-assisted cooling to reduce the thermally generated charge. Cosmic ray correction and background subtraction were performed on the 2D image before further data processing. The 2D image was integrated into the one-dimensional scattering function within a band of 10 mm. The measurement time was 30 min for each scattering curve (6 images of 5 minutes were taken to assist the cosmic ray correction).
Determination of the Beta-Casein Assemblies Molecular Weights.
The molecular weight of the scattering aggregates were calculated according to Eq. 1:
[formula] where M is the molecular weight, dΣ(0)/dΩ (cm^−1) the forward scattering intensity at q=0, c (g/cm^3) the beta-casein concentration, NA the Avogadro number, and ΔρM (cm/g) the scattering length difference per mass, given by: ΔρM=Δρ v (2)
The scattering length difference Δρ (cm^−2) was calculated using the known chemical composition of the protein and the solvent, and v (cm^3/g), the specific volume of the protein in the solution that was calculated via density measurement of the solvent and the solution. The micelle aggregation number was then calculated by dividing the molecular weight of the micelles determined with Eq. 1, by the molecular weight of a single protein molecule.
For a particle of arbitrary shape with a scattering density difference of Δρ(r), the pair distance distribution function p(r) (PDDF) is given by: p(r)=r^2Δ ρ^2(r) (3) where Δ ρ^2(r) is the convolution square of Δρ(r) averaged for all directions in space. The PDDF is related to the scattered intensity I(q) by a Fourier transformation, and it enables the determination of the overall shape and size of the scattering objects.
[formula] where q is the magnitude of the scattering vector q, defined as
[formula] λ is the wavelength of the incident radiation and θ is the angle between the scattered and incident beam. The function ƒ(r)=p(r)/r (6) is useful to identify flat plate-like particles, although it has no direct physical meaning. For lamellae, this function starts with a linearly increasing part and becomes almost flat when r is equal to the thickness of the lamella. For flat particles with a finite base area, the outer part decreases linearly because of boundary losses. The thickness of the lamella can then be read from the transition point. […] The standard error of the analytical ultracentrifugation data is 5%, and that of the Rg is 4%. The analysis supports the statistical significance and validity of the results.
• Characterization of the beta-casein micelles by SAXS: We have applied SAXS measurements to determine the shape and dimensions of the micelles at low pH and at neutral pH, more precisely, and to evaluate the micelle molecular weight (i.e., the aggregation number). The scattering curves of 20 mg/mL beta-casein in lactic acid solution (pH 2.6, IS 0.0022) at different temperatures are shown in FIG. 3a. […] Consequently, the calculated Pair Distance Distribution Functions (PDDF), are also similar (FIG. 3b). The maximum micelle dimension is approximately 25 nm at all temperatures. The area under the PDDF curve, which is proportional to the weight of one particle, is almost constant. To calculate the aggregation number, the density of the solvent and the solution was measured at various temperatures (Table 2). […]

B1: beta-casein: lyophilized bovine beta-casein (~24 kDa milk protein) self-assembled into nano-sized micelles at low or neutral pH (protein, UniProt P02666 16-224, looked up)
Beta-casein: RELEELNVPGEIVESLSSSEESITRINKKIEKFQSEEQQQTEDELQDKIHPFAQTQSLVYPFPGPIPNSLPQNIPPLTQTPVVVPPFLQPEVMGVSKVKEAMAPKHKEMPFPKYPVEPFTESQSLTLTDVENLHLPLPLLQSWMHQPHQPLPPTVMFPPQSVLSLSQSKVLPVPQKAVPYPQRDMPIQAFLLYQEPVLGPVRGPFPIIV
maximum micelle dimension (20 mg/mL, pH 2.6, IS 0.0022, all temperatures 4-40 °C): approximately 25 nm
aggregation number (20 mg/mL, 1 °C): 7
aggregation number (20 mg/mL, 60 °C): 210
Nagg (pH 2.6, 4 °C, 2 wt % beta-casein, SAXS): 8
Nagg (pH 2.6, 16 °C, SAXS): 10
aggregation state (pH 2.6, 25 °C, 0.1 wt %): monomers
aggregation state (pH 2.6, 25 °C, 0.25 wt %): dimers
CMC (pH 2.6, 25 °C, SAXS): 0.1-0.2 wt %
Nagg (pH 2.6, 25 °C, SAXS): 11
Nagg (pH 2.6, 40 °C, SAXS): 9
thickness of the particles (pH 2.6, all temperatures, from f(r) transition point): ~3.5 nm
Micelle Dimensions (pH 2.6, as a function of temperature 4-40 °C): Constant
typical sizes of beta-casein micelles (pH 7.0, ionic strength 0.1, depending on protein concentration): 13-15 nm and 22-25 nm
